Data taken from paper PMC5074588.

Biological target: tubulins (tubulin dimers; paclitaxel-stabilized microtubules)
Assay: co-sedimentation; different concentrations of the protein added to paclitaxel-stabilized microtubules (prepolymerized from 8 uM tubulins in Fig 5A, 5 uM in S7 Fig) in PEMT buffer (1 mM MgCl2, 1 mM EGTA, 100 mM PIPES, 20 uM taxol, pH 6.9); 25 C 30 min; 100,000g 30 min; SDS-PAGE, Coomassie

Sequence of tubulins (tubulin dimers; paclitaxel-stabilized microtubules) (P02550 whole entry, chain 1 of 2): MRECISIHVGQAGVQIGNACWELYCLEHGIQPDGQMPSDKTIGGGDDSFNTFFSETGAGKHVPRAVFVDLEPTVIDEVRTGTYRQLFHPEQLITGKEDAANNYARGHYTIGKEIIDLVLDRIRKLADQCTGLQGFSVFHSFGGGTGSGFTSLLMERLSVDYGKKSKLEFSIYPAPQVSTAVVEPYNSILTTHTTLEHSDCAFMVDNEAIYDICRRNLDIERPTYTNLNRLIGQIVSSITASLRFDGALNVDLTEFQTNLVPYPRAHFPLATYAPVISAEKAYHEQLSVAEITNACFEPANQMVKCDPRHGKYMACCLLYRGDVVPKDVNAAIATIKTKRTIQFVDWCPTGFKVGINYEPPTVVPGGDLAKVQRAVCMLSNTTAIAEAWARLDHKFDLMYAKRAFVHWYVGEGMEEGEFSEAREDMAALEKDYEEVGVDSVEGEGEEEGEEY
Sequence of tubulins (tubulin dimers; paclitaxel-stabilized microtubules) (P02554 whole entry, chain 2 of 2, further chain): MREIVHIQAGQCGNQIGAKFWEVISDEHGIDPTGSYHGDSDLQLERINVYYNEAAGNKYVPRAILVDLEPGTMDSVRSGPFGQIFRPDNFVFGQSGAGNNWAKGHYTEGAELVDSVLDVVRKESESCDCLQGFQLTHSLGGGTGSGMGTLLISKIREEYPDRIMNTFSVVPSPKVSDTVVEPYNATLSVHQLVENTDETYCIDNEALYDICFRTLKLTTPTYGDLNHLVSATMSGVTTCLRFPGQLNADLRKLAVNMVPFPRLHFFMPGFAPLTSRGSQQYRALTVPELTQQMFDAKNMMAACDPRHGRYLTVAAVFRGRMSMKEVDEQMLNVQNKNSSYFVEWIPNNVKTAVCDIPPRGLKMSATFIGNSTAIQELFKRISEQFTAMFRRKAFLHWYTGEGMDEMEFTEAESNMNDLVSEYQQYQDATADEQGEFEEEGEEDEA

His-AUG8 (AUGMIN subunit 8) (natural protein)
stoichiometry N (M His-AUG8 per mole of tubulin dimers): 0.22
